The record followed here is the supplement of paper PMC9732359.

The nature of this data set: protein stability index of a GFP-peptide fusion (yeast GPS) (PSI 1-4); higher = more stable; sorted into four equal gates, so the index is relative within each strain. The gist of the method: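 Sequencing reads from sorted gates were used to score each peptide. The library consisted of tiled 17-residue yeast protein peptides fused downstream of GFP on a Cherry-expressing plasmid, pooled and carried in yeast. Mid-log cultures in leucine-free medium were split into four equal gates by GFP/Cherry ratio, and each gate's plasmids were PCR-amplified and Illumina-sequenced. The protein stability index adds up, over all gates, the read frequency multiplied by the gate number.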

± gives the uncertainty stated by the source.

TQSYNNQNTLKEISARR [POP1] gave a protein stability index (doa10∆) of 2.29 ± 0.041, a protein stability index (pdr5∆) of 2.48 ± 0.035, a protein stability index (san1∆) of 2.24 ± 0.063 and a protein stability index (ubr1∆) of 2.78 ± 0.037.
For VVDFTSLPEELKKRYDL [YMR129W/POM152] the same measures were 2.14 ± 0.21, 2.33 ± 0.15, 2.96 ± 0.088 and 2.62 ± 0.12.
As for GQNCLDIDGIMDNPRKL [SNU114], the protein stability index is, setting by setting: (pdr5∆) 3.43 ± 0.27; (san1∆) 3.4 ± 0.092; (ubr1∆) 3.81 ± 0.27.
As to NFYIQYDPKDGLYKMME [AAR2], for the setting “pdr5∆”, the protein stability index was found to be 2.21 ± 0.14.
With VQRQIEQQKGQQTAQTQ [SNF5], the protein stability index is, setting by setting: (doa10∆) 3.41 ± 0.08; (pdr5∆) 3.3 ± 0.078; (san1∆) 3.3 ± 0.061; (ubr1∆) 3.07 ± 0.055.
With RFNHLVTRLFFICSIIQ [YML031W/NDC1], the protein stability index runs as follows: (doa10∆) 1.22 ± 0.046; (pdr5∆) 1.29 ± 0.039; (san1∆) 1.32 ± 0.086; (ubr1∆) 1.49 ± 0.039.
On the same counts, the results for NVTSSGDHNKLRSTIAN [YML103C/NUP188] are 2.43 ± 0.051, 2.48 ± 0.062, 2.35 ± 0.071 and 2.02 ± 0.033.
On the same counts, the results for GKLISNLSSTPMETLLS [YML031W/NDC1] are 2.61 ± 0.11, 2.92 ± 0.12, 2.51 ± 0.11 and 2.5 ± 0.063.
For SYSGYDIEDALVLNKSS [RET1] the same measures were 2.4 ± 0.059, 2.63 ± 0.052, 2.18 ± 0.071 and 2.45 ± 0.047.
MIAKEVKTSPDAKKCIA [FAS1] came in with a protein stability index (doa10∆) of 1.71 ± 0.15, a protein stability index (pdr5∆) of 2.95 ± 0.28, a protein stability index (san1∆) of 2.8 ± 0.28 and a protein stability index (ubr1∆) of 2.05 ± 0.12.
On the same counts, the results for TIRLWECGTGTTIHTFN [RPN14] are 2.11 ± 0.18, 2.4 ± 0.11, 2.21 ± 0.12 and 1.99 ± 0.13.
As for RPDITMYCRPAPSDFSE [GRR1], the protein stability index by setting is: (doa10∆) 2.16 ± 0.12; (pdr5∆) 2.12 ± 0.15; (san1∆) 2.97 ± 0.067; (ubr1∆) 2.17 ± 0.076.
For PLQNIHVRKVKLLKQPK [RPS1A] the same measures were 2.69 ± 0.075, 2.82 ± 0.074, 2.71 ± 0.051 and 2.53 ± 0.065.
As for NAEKTGKRQVLLRPSSK [RPS22B], the protein stability index is, setting by setting: (doa10∆) 3.14 ± 0.064; (pdr5∆) 2.93 ± 0.055; (san1∆) 3.24 ± 0.046; (ubr1∆) 2.85 ± 0.038.
On the same counts, the results for ITSIPKPLTENCKKKKK [RMP1] are 2.84 ± 0.12, 2.75 ± 0.12, 2.05 ± 0.085 and 2.99 ± 0.095.
For EWQDIIHQREQELQIKR [CSE2], the protein stability index is, setting by setting: (pdr5∆) 3.5 ± 0.17; (san1∆) 3.29 ± 0.26; (ubr1∆) 3.13 ± 0.23.
Sequence DQDSAVVSSNIKKIVAD [QCR2] registered a protein stability index (ubr1∆) of 3.14 ± 0.14.
Turning to SERDSKDRYINGDKKVD [YMR129W/POM152], the protein stability index is 3.08 ± 0.14 (doa10∆), 3.11 ± 0.092 (pdr5∆), 3.15 ± 0.091 (san1∆) and 3.1 ± 0.1 (ubr1∆).
On the same counts, the results for FSQFWYWFPLAHFLSLS [RPN2] are 1.66 ± 0.044, 1.32 ± 0.045, 1.21 ± 0.11 and 1.19 ± 0.038.
For RNEVLESMDFLVLADAF [YCS4], the protein stability index is 2.04 ± 0.048 (doa10∆), 2.31 ± 0.086 (pdr5∆), 2.43 ± 0.092 (san1∆) and 2.72 ± 0.048 (ubr1∆).
For LFDTYHASKAIGLPRHS [RRP6] the same measures were 2.15 ± 0.061, 2.29 ± 0.06, 2.34 ± 0.081 and 2.08 ± 0.071.
For SATPNAAAFSQQQNASS [GAL11] the same measures were 2.94 ± 0.063, 3.1 ± 0.054, 2.89 ± 0.035 and 3.09 ± 0.041.
On the same counts, the results for KLTSEETVFNYRLMIKR [GRR1] are 3.02 ± 0.12, 2.96 ± 0.12, 2.56 ± 0.12 and 2.82 ± 0.095.
GLESQIQEIKESVELPL [RPT2] came in with a protein stability index (doa10∆) of 2.11 ± 0.087, a protein stability index (pdr5∆) of 2.3 ± 0.073, a protein stability index (san1∆) of 2.48 ± 0.067 and a protein stability index (ubr1∆) of 2.83 ± 0.072.
For the sequence SSHQRVFKLSTNLISKI [SWP82], the protein stability index by setting is: (doa10∆) 2.08 ± 0.073; (pdr5∆) 1.97 ± 0.057; (san1∆) 1.52 ± 0.11; (ubr1∆) 1.93 ± 0.048.
On the same counts, the results for PQPLFMEDPPSTVSGEL [YMR153W/NUP53] are 3.38 ± 0.2, 3.64 ± 0.19, 3.58 ± 0.11 and 3.12 ± 0.16.
